Data set [1] has as its system HeLa Kyoto. In words: solubility in G1/S (NP-40 vs SDS abundance) (log2 ratio); higher = more soluble. The following applies: cell cycle stage: G1/S.
Data set [2] relates to HeLa Kyoto. The experiment in a line: melting temperature (median over replicates), in situ; higher = more thermally stable.
The test system of data set [3] is HeLa Kyoto. The experiment in a line: thermal stability score vs G1/S (z-score of summed log2 fold changes over temperatures); higher = more thermally stable than in G1/S.
Data set [4] has as its system HeLa Kyoto. In words: solubility change mitosis vs G1/S (difference of NP-40 vs SDS log2 ratios) (log2 ratio difference); higher = more soluble in mitosis.
The mark [5] stands for this setting: cell cycle stage: early G1 (4.5 h after nocodazole release).
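Wherever melting temperature (median over replicates), in situ is given: HeLa Kyoto cells synchronized by double thymidine or nocodazole block, proteins quantified by TMT10plex mass spectrometry, three independent biological replicates.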
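Wherever solubility change mitosis vs G1/S (difference of NP-40 vs SDS log2 ratios) is given: synchronized HeLa Kyoto cells (double thymidine block for G1/S, nocodazole release for mitosis), protein amounts in NP-40 versus SDS lysates quantified by mass spectrometry, three biological replicates.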
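Wherever solubility in G1/S (NP-40 vs SDS abundance) is given: HeLa Kyoto cells arrested at G1/S by double thymidine block, proteins quantified by TMT10plex mass spectrometry in mild NP-40 versus SDS extracts, three biological replicates.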
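Wherever thermal stability score vs G1/S (z-score of summed log2 fold changes over temperatures) is given: synchronized HeLa Kyoto cells, proteins quantified by TMT10plex mass spectrometry, three biological replicates, mitosis taken 0.5 h after nocodazole release, G1/S directly after double thymidine block.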

For “MAASSLEQKLSRLEAKLKQENREARRRIDLNLDISPQRPRPTLQLPLANDGGSRSPSSESSPQHPTPPARPRHMLGLPSTLFTPRSMESIEIDQKLQEIMKQTGYLTIGGQRYQAEINDLENLGEMGSGTCGQVWKMRFRKTGHVIAVKQMRRSGNKEENKRILMDLDVVLKSHDCPYIVQCFGTFITNTDVFIAMELMGTCAEKLKKRMQGPIPERILGKMTVAIVKALYYLKEKHGVIHRDVKPSNILLDERGQIKLCDFGISGRLVDSKAKTRSAGCAAYMAPERIDPPDPTKPDYDIRADVWSLGISLVELATGQFPYKNCKTDFEVLTKVLQEEPPLLPGHMGFSGDFQSFVKDCLTKDHRKRPKYNKLLEHSFIKRYETLEVDVASWFKDVMAKTESPRTSGVLSQPHLPFFR [MAP2K7]”, in data set [1], the “solubility in G1/S (log2)” value is 0.237. In addition, the melting temperature was found to be 49.9 °C in data set [2] (cell cycle stage: G1/S) and 50 °C in data set [2] (cell cycle stage: mitosis). For the same sequence, the thermal stability score in data set [3] (setting [5]) turned out to be 1.35; in data set [3] (cell cycle stage: mitosis) it was 1.39. For the same sequence, the “solubility change mitosis (log2)” value in data set [4] came to 0.0421.

For “MAASVAAAARRLRRAIRRSPAWRGLSHRPLSSEPPAAKASAVRAAFLNFFRDRHGHRLVPSASVRPRGDPSLLFVNAGMNQFKPIFLGTVDPRSEMAGFRRVANSQKCVRAGGHHNDLEDVGRDLSHHTFFEMLGNWAFGGEYFKEEACNMAWELLTQVYGIPEERLWISYFDGDPKAGLDPDLETRDIWLSLGVPASRVLSFGPQENFWEMGDTGPCGPCTEIHYDLAGGVGAPQLVELWNLVFMQHNREADGSLQPLPQRHVDTGMGLERLVAVLQGKHSTYDTDLFSPLLNAIQQGCRAPPYLGRVGVADEGRTDTAYRVVADHIRTLSVCISDGIFPGMSGPPLVLRRILRRAVRFSMEILKAPPGFLGSLVPVVVETLGDAYPELQRNSAQIANLVSEDEAAFLASLERGRRIIDRTLRTLGPSDMFPAEVAWSLSLCGDLGLPLDMVELMLEEKGVQLDSAGLERLAQEEAQHRARQAEPVQKQGLWLDVHALGELQRQGVPPTDDSPKYNYSLRPSGSYEFGTCEAQVLQLYTEDGTAVASVGKGQRCGLLLDRTNFYAEQGGQASDRGYLVRAGQEDVLFPVARAQVCGGFILHEAVAPECLRLGDQVQLHVDEAWRLGCMAKHTATHLLNWALRQTLGPGTEQQGSHLNPEQLRLDVTTQTPLTPEQLRAVENTVQEAVGQDEAVYMEEVPLALTAQVPGLRSLDEVYPDPVRVVSVGVPVAHALDPASQAALQTSVELCCGTHLLRTGAVGDLVIIGDRQLSKGTTRLLAVTGEQAQQARELGQSLAQEVKAATERLSLGSRDVAEALRLSKDIGRLIEAVETAVMPQWQRRELLATVKMLQRRANTAIRKLQMGQAAKKTQELLERHSKGPLIVDTVSAESLSVLVKVVRQLCEQAPSTSVLLLSPQPMGKVLCACQVAQGAMPTFTAEAWALAVCSHMGGKAWGSRVVAQGTGSTTDLEAALSIAQTYALSQL [AARS2]”, the “solubility in G1/S (log2)” value in data set [1] was -0.0312. Besides, the melting temperature in data set [2] (cell cycle stage: G1/S) came out at 49.9 °C; in data set [2] (cell cycle stage: mitosis), 50 °C. Besides, the thermal stability score was -0.609 in data set [3] (setting [5]) and 0.833 in data set [3] (cell cycle stage: mitosis). The “solubility change mitosis (log2)” value in data set [4] was -0.0878.

For “MAASVVCRAATAGAQVLLRARRSPALLRTPALRSTATFAQALQFVPETQVSLLDNGLRVASEQSSQPTCTVGVWIDVGSRFETEKNNGAGYFLEHLAFKGTKNRPGSALEKEVESMGAHLNAYSTREHTAYYIKALSKDLPKAVELLGDIVQNCSLEDSQIEKERDVILREMQENDASMRDVVFNYLHATAFQGTPLAQAVEGPSENVRKLSRADLTEYLSTHYKAPRMVLAAAGGVEHQQLLDLAQKHLGGIPWTYAEDAVPTLTPCRFTGSEIRHRDDALPFAHVAIAVEGPGWASPDNVALQVANAIIGHYDCTYGGGVHLSSPLASGAVANKLCQSFQTFSICYAETGLLGAHFVCDRMKIDDMMFVLQGQWMRLCTSATESEVARGKNILRNALVSHLDGTTPVCEDIGRSLLTYGRRIPLAEWESRIAEVDASVVREICSKYIYDQCPAVAGYGPIEQLPDYNRIRSGMFWLRF [UQCRC1]”, the “solubility in G1/S (log2)” value in data set [1] was 0.324. For the same sequence, the melting temperature in data set [2] (cell cycle stage: G1/S) came out at 55.3 °C; in data set [2] (cell cycle stage: mitosis), 54.2 °C. Also, the results for the thermal stability score in data set [3] (setting [5]) and in data set [3] (cell cycle stage: mitosis) were -0.504 and -3.84, respectively. In addition, in data set [4], the “solubility change mitosis (log2)” value was -0.0237.

Turning to “MAATAAAVVAEEDTELRDLLVQTLENSGVLNRIKAELRAAVFLALEEQEKVENKTPLVNESLKKFLNTKDGRLVASLVAEFLQFFNLDFTLAVFQPETSTLQGLEGRENLARDLGIIEAEGTVGGPLLLEVIRRCQQKEKGPTTGEGALDLSDVHSPPKSPEGKTSAQTTPSKIPRYKGQGKKKTSGQKAGDKKANDEANQSDTSVSLSEPKSKSSLHLLSHETKIGSFLSNRTLDGKDKAGLCPDEDDMEGDSFFDDPIPKPEKTYGLRKEPRKQAGSLASLSDAPPLKSGLSSLAGAPSLKDSESKRGNTVLKDLKLISDKIGSLGLGTGEDDDYVDDFNSTSHRSEKSEISIGEEIEEDLSVEIDDINTSDKLDDLTQDLTVSQLSDVADYLEDVA [FGFR1OP]”, the “solubility in G1/S (log2)” value in data set [1] was 0.156. The figures for the melting temperature in data set [2] (cell cycle stage: G1/S) and in data set [2] (cell cycle stage: mitosis) were 52 °C and 52.4 °C, respectively. The thermal stability score in data set [3] (setting [5]) was -0.228; in data set [3] (cell cycle stage: mitosis), -0.703. Further, the “solubility change mitosis (log2)” value in data set [4] is -0.0261.

Regarding “MAATAAEAVASGSGEPREEAGALGPAWDESQLRSYSFPTRPIPRLSQSDPRAEELIENEEPVVLTDTNLVYPALKWDLEYLQENIGNGDFSVYSASTHKFLYYDEKKMANFQNFKPRSNREEMKFHEFVEKLQDIQQRGGEERLYLQQTLNDTVGRKIVMDFLGFNWNWINKQQGKRGWGQLTSNLLLIGMEGNVTPAHYDEQQNFFAQIKGYKRCILFPPDQFECLYPYPVHHPCDRQSQVDFDNPDYERFPNFQNVVGYETVVGPGDVLYIPMYWWHHIESLLNGGITITVNFWYKGAPTPKRIEYPLKAHQKVAIMRNIEKMLGEALGNPQEVGPLLNTMIKGRYN [HIF1AN]”, the “solubility in G1/S (log2)” value in data set [1] was determined as 0.273. Also, the melting temperature in data set [2] (cell cycle stage: G1/S) came out at 52.3 °C; in data set [2] (cell cycle stage: mitosis), 51.7 °C. Moreover, the thermal stability score in data set [3] (setting [5]) worked out at 0.637; in data set [3] (cell cycle stage: mitosis) it was 1.68. For the same sequence, the “solubility change mitosis (log2)” value in data set [4] is -0.0585.

As for “MAATALLEAGLARVLFYPTLLYTLFRGKVPGRAHRDWYHRIDPTVLLGALPLRSLTRQLVQDENVRGVITMNEEYETRFLCNSSQEWKRLGVEQLRLSTVDMTGIPTLDNLQKGVQFALKYQSLGQCVYVHCKAGRSRSATMVAAYLIQVHKWSPEEAVRAIAKIRSYIHIRPGQLDVLKEFHKQITARATKDGTFVISKT [PTPMT1]”, the “solubility in G1/S (log2)” value in data set [1] is -0.268. Further, the melting temperature in data set [2] (cell cycle stage: G1/S) was 51.8 °C; in data set [2] (cell cycle stage: mitosis), 51.2 °C. Also, the thermal stability score in data set [3] (setting [5]) was -0.395; in data set [3] (cell cycle stage: mitosis), -0.764. In addition, the “solubility change mitosis (log2)” value in data set [4] is -0.0676.

For “MAATKRKRRGGFAVQAKKPKRNEIDAEPPAKRHATAEEVEEEERDRIPGPVCKGKWKNKERILIFSSRGINFRTRHLMQDLRMLMPHSKADTKMDRKDKLFVINEVCEMKNCNKCIYFEAKKKQDLYMWLSNSPHGPSAKFLVQNIHTLAELKMTGNCLKGSRPLLSFDPAFDELPHYALLKELLIQIFSTPRYHPKSQPFVDHVFTFTILDNRIWFRNFQIIEEDAALVEIGPRFVLNLIKIFQGSFGGPTLYENPHYQSPNMHRRVIRSITAAKYREKQQVKDVQKLRKKEPKTLLPHDPTADVFVTPAEEKPIEIQWVKPEPKVDLKARKKRIYKRQRKMKQRMDSGKTK [BRIX1]”, the “solubility in G1/S (log2)” value in data set [1] was -2.07. The melting temperature in data set [2] (cell cycle stage: G1/S) was 53.8 °C; in data set [2] (cell cycle stage: mitosis) it was 52.9 °C. Also, the values for the thermal stability score in data set [3] (setting [5]) and in data set [3] (cell cycle stage: mitosis) were 0.649 and -2.33, respectively. Besides, the “solubility change mitosis (log2)” value in data set [4] turned out to be 1.19.

Regarding “MAATLKSLKLVRYRAFCSPSAFGAVRSVSYWNVSSTQHGGQDPPEHISLCHSAKKVKNICSTFSSRRILTTSSAHPGLEFSKTSSSKASTLQLGSPRATGVDEEDVEVFDSFENMRVFLQLRPEYRVHSYNASETSQLLSVSEGELILHKVRVNQNNLQAQVIVDYLCKLSSLPAEQHPVLLGSTSFALLCQLSVKKIQLFDTQDLINVLKAFVILGIPHSHSMLDVYETKCCHQVWEMNMDQLLLVADLWRYLGRKVPRFLNIFSSYLNLHWKDLSLSQLVHLIYVIGENRQVSQDLMQKLESLILKYIDLINLEEVGTICLGFFKSSTNLSEFVMRKIGDLACANIQHLSSRSLVNIVKMFRFTHVDHINFMKQIGEIAPQRIPSLGVQGVMHLTLYCSALRFLNEGVMNAVAASLPPRVAHCRSKDVAKILWSFGTLNYKPPNAEEFYSSLISEIHRKMPEFNQYPEHLPTCLLGLAFLEYFPVELIDFALSPGFVRLAQERTKFDLLKELYTLDGTVGIECPDYRGNRLSTHLQQEGSELLWYLAEKDMNSKPEFLETVFLLETMLGGPQYVKHHMILPHTRSSDLEVQLDVNLKPLPFNREATPAENVAKLRLEHVGVSLTDDLMNKLLKGKARGHFQGKTESEPGQQPMELENKAAVPLGGFLCNVADKSGAMEMAGLCPAACMQTPRMKLAVQFTNRNQYCYGSRDLLGLHNMKRRQLARLGYRVVELSYWEWLPLLKRTRLEKLAFLHEKVFTSAL [FASTKD5]”, the “solubility in G1/S (log2)” value in data set [1] was -0.184. Besides, the melting temperature in data set [2] (cell cycle stage: G1/S) was 49.5 °C; in data set [2] (cell cycle stage: mitosis), 49.8 °C. The thermal stability score in data set [3] (setting [5]) was found to be 0.139; in data set [3] (cell cycle stage: mitosis), 1.05. Also, in data set [4], the “solubility change mitosis (log2)” value is -0.0689.

For the origin of these results see the supplement of paper PMC5998384.
